Results from publication PMC10878793.

What was measured:
[1] = target: cytochrome P450 17A1 (Homo sapiens) (UniProt P05093); assay: surface plasmon resonance; conditions: cited from earlier work
[2] = target: human cytochrome b5 K24C, unlabeled (human) (UniProt P00167); assay: SDS-PAGE with and without reducing agent; purified b5 variant run with or without β-mercaptoethanol (10%, v/v) or DTT; monomer at 17 kDa, dimer at 34 kDa; disulfide-linked dimer
[3] = target: human cytochrome b5 T70C, unlabeled (human) (UniProt P00167); assay: as above
[4] = target: P450 17A1 peptide (putative b5 binding site of P450 17A1) (human); assay: fluorescence polarisation; competition: nonlabeled WT b5 at various concentrations added to the complex of Alexa 488-b5 K77C (10 nM) and P450 17A1 peptide (100 μM)
[5] = target: P450 17A1 peptide (putative b5 binding site of P450 17A1) (human); assay: fluorescence polarisation; competition: nonlabeled WT b5 at various concentrations added to the complex of Alexa 488-b5 T70C (10 nM) and P450 17A1 peptide (100 μM)
[6] = target: previously constructed Alexa 488-T70C-b5 (ref. 19; nonspecifically labelled) (human) (UniProt P00167); assay: SDS-PAGE with and without reducing agent; purified b5 variant run with or without β-mercaptoethanol (10%, v/v) or DTT; monomer at 17 kDa, dimer at 34 kDa; disulfide-linked dimer
[7] = target: Alexa 488-labeled human cytochrome b5 T70C (singly labelled at Cys-70, this paper) (human) (UniProt P00167); assay: fluorescence polarisation; P450 17A1 protein or P450 17A1 peptide added to Alexa 488-labeled b5 variant (10 nM) in 1 mM potassium phosphate buffer, pH 7.4, 384-well plate, 50 μl; anisotropy fitted with a quadratic equation
[8] = target: Alexa 488-labeled human cytochrome b5 K77C (human) (UniProt P00167); assay: as above

cytochrome b5 (from UniProt P00167)
Kd [1]: 440 nM

human cytochrome b5 K24C, unlabeled (from UniProt P00167 1-134) (natural protein)
stoichiometry N [2]: 2

human cytochrome b5 T70C, unlabeled (from UniProt P00167 1-134) (natural protein)
stoichiometry N [3]: 2

human cytochrome b5, WT, nonlabeled (from UniProt P00167 1-134) (natural protein)
IC50 [4]: 223 nM
IC50 [5]: 129 nM

previously constructed Alexa 488-T70C-b5 (ref. 19; nonspecifically labelled) (from UniProt P00167 1-134) (natural protein)
stoichiometry N [6]: 2

B1: P450 17A1 peptide (putative b5 binding site of P450 17A1) (peptide)
peptide: RNRLLLLEATIR
Kd [7]: 113000 nM
Kd [8]: 52000 nM

B2: human cytochrome P450 17A1 (steroid 17α-hydroxylase/17,20-lyase) (enzyme)
chain: MWELVALLLLTLAYLFWPKRRCPGAKYPKSLLSLPLVGSLPFLPRHGHMHNNFFKLQKKYGPIYSVRMGTKTTVIVGHHQLAKEVLIKKGKDFSGRPQMATLDIASNNRKGIAFADSGAHWQLHRRLAMATFALFKDGDQKLEKIICQEISTLCDMLATHNGQSIDISFPVFVAVTNVISLICFNTSYKNGDPELNVIQNYNEGIIDNLSKDSLVDLVPWLKIFPNKTLEKLKSHVKIRNDLLNKILENYKEKFRSDSITNMLDTLMQAKMNSDNGNAGPDQDSELLSDNHILTTIGDIFGAGVETTTSVVKWTLAFLLHNPQVKKKLYEEIDQNVGFSRTPTISDRNRLLLLEATIREVLRLRPVAPMLIPHKANVDSSIGEFAVDKGTEVIINLWALHHNEKEWHQPDQFMPERFLNPAGTQLISPSVSYLPFGAGPRSCIGEILARQELFLIMAWLLQRFDLEVPDDGQLPSLEGIPKVVFLIDSFKVKIKVRQAWREAQAEGST
Kd [7]: 379 nM
Kd [8]: 125 nM
